Assay results from the supplement of paper PMC11136658.

System: peptide library, one residue held at a place counted from the Y acceptor
Assay: relative phosphorylation of the sub-library (ratio to the mean residue at this position); higher = residue favoured
Outline: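 Every value reflects phosphorylation relative to the mean randomized residue. The sum of the 18 randomized residues, or 16 in the Ser/Thr-free library, served to normalize intensities at each position, which were then multiplied by that number. Intensities came from phosphorimaging with ImageQuant of biotinylated Tyr-centred peptides captured on streptavidin membranes after 90 min with purified recombinant kinases and 50 μM ATP plus γ-32P-ATP.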

Chain of MERTK, construct: aa578-872, human (Q12866 578-872, looked up): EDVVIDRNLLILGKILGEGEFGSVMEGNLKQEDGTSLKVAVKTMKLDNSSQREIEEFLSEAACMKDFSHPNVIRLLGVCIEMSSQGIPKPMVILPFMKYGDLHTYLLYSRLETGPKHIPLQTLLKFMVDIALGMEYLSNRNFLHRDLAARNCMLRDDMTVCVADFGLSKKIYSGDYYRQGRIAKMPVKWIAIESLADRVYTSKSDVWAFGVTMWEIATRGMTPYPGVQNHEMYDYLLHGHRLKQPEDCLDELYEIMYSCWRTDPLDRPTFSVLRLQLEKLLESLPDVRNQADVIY
Chain of MKK4, construct: aa34-end, human (P45985 34-399, looked up): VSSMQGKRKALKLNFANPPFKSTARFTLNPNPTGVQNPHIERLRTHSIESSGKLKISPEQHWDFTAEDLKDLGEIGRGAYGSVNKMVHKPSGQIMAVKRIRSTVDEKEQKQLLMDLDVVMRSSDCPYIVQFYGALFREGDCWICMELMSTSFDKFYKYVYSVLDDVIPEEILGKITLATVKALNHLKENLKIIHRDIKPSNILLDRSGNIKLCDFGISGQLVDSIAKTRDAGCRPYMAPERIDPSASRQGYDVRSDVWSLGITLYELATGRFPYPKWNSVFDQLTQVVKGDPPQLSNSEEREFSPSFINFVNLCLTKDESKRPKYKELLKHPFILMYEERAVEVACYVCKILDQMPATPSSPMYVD

MERTK, construct: aa578-872, human (from UniProt Q12866)
relative phosphorylation
Conditions | at +1 | at +2 | at +3 | at +4 | at +5 | at -1 | at -2 | at -3 | at -4 | at -5
A fixed | 2.07 | 0.87 | 0.578 | 0.92 | 1.15 | 0.711 | 1.06 | 1.01 | 1.28 | 1.1
D fixed | 0.89 | 0.601 | 0.483 | 0.962 | 0.839 | 0.591 | 0.967 | 1.27 | 1.12 | 0.979
E fixed | 1.69 | 1.01 | 0.426 | 1.27 | 0.786 | 0.468 | 1.28 | 1.55 | 1.44 | 0.974
F fixed | 1.01 | 1.64 | 1.93 | 1.14 | 0.565 | 1.75 | 0.655 | 0.836 | 0.595 | 1.03
G fixed | 0.859 | 0.321 | 0.63 | 1.37 | 1.61 | 0.299 | 1.63 | 1.28 | 1.46 | 1.31
H fixed | 0.791 | 0.687 | 0.848 | 1.12 | 1.01 | 1.4 | 0.989 | 0.875 | 0.891 | 0.994
I fixed | 0.708 | 1.34 | 1.58 | 0.549 | 0.621 | 2.37 | 0.533 | 0.482 | 0.84 | 0.889
K fixed | 0.25 | 0.594 | 0.254 | 0.822 | 0.996 | 0.436 | 0.948 | 0.746 | 0.911 | 1.05
L fixed | 0.831 | 1.4 | 2.13 | 0.799 | 0.745 | 2.69 | 0.777 | 0.863 | 1.02 | 0.993
M fixed | 1.4 | 1.2 | 1.64 | 1.09 | 0.917 | 1.14 | 0.68 | 0.967 | 0.968 | 1
N fixed | 0.447 | 0.768 | 0.465 | 0.76 | 0.879 | 0.842 | 1.26 | 1.21 | 0.926 | 1.13
P fixed | 0.172 | 0.684 | 1.17 | 1.2 | 2.65 | 0.481 | 1.18 | 1.32 | 1.25 | 1.24
Q fixed | 1.04 | 0.695 | 0.72 | 0.962 | 0.81 | 0.63 | 1.19 | 0.953 | 1.16 | 1.09
R fixed | 0.353 | 0.679 | 0.392 | 1.07 | 0.991 | 0.439 | 1.09 | 0.775 | 1.2 | 1.13
S fixed | 1.33 | 0.725 | 0.562 | 0.926 | 1.08 | 0.517 | 1.34 | 1.16 | 0.807 | 0.783
T fixed | 1.3 | 0.973 | 0.838 | 1 | 0.97 | 0.939 | 1.1 | 1.17 | 0.667 | 0.874
V fixed | 1.53 | 1.33 | 1.55 | 0.904 | 0.756 | 1.38 | 0.842 | 0.803 | 0.866 | 0.862
W fixed | 1.34 | 2.47 | 1.8 | 1.14 | 0.608 | 0.916 | 0.484 | 0.743 | 0.594 | 0.564
pThr fixed | 1.89 | 1.18 | 0.3 | 0.633 | 0.568 | 0.718 | 0.915 | 1.1 | 0.901 | 0.902
pTyr fixed | 1.96 | 2.62 | 0.613 | 0.678 | 0.61 | 2.26 | 1.19 | 1.46 | 1.13 | 0.957

MKK4, construct: aa34-end, human (from UniProt P45985)
relative phosphorylation
Conditions | at +1 | at +2 | at +3 | at +4 | at +5 | at -1 | at -2 | at -3 | at -4 | at -5
A fixed | 1.14 | 0.979 | 0.996 | 1.06 | 0.902 | 0.986 | 1.01 | 0.916 | 1.11 | 1.06
D fixed | 1.32 | 1.29 | 1.03 | 1.2 | 1.02 | 1.49 | 1.18 | 0.991 | 1.09 | 0.992
E fixed | 1.26 | 1.05 | 1.16 | 1.05 | 1.18 | 1.2 | 1.17 | 0.898 | 1.09 | 1.06
F fixed | 0.867 | 1.1 | 1.08 | 1.12 | 1.13 | 0.844 | 1.06 | 1.05 | 1.06 | 1.17
G fixed | 1.49 | 1.25 | 1.12 | 1.15 | 1.18 | 1.58 | 1.02 | 0.961 | 1.2 | 1.18
H fixed | 0.87 | 0.959 | 0.981 | 1.22 | 1.04 | 0.866 | 0.994 | 1.01 | 1 | 1.11
I fixed | 0.748 | 0.79 | 0.796 | 0.795 | 0.79 | 0.898 | 0.72 | 0.833 | 0.785 | 0.884
K fixed | 0.786 | 0.846 | 0.923 | 0.837 | 0.909 | 0.638 | 1.09 | 1.07 | 0.878 | 0.915
L fixed | 0.892 | 0.859 | 0.806 | 0.855 | 0.941 | 1.03 | 0.974 | 0.991 | 0.905 | 0.905
M fixed | 1.05 | 0.907 | 0.949 | 0.904 | 0.88 | 1.11 | 0.922 | 0.934 | 0.918 | 0.873
N fixed | 0.957 | 1.03 | 0.898 | 0.844 | 0.9 | 0.905 | 0.983 | 0.939 | 0.86 | 0.984
P fixed | 1.11 | 1.32 | 1.34 | 1.37 | 1.22 | 1.04 | 1.05 | 0.928 | 1.08 | 1.09
Q fixed | 0.87 | 0.893 | 0.854 | 0.753 | 0.858 | 0.885 | 0.856 | 1.04 | 0.977 | 0.902
R fixed | 0.865 | 0.941 | 0.977 | 0.907 | 1.05 | 0.771 | 0.958 | 1.41 | 1.02 | 0.97
V fixed | 0.775 | 0.779 | 0.826 | 0.761 | 0.775 | 0.694 | 0.792 | 0.736 | 0.771 | 0.713
W fixed | 0.999 | 1.02 | 1.27 | 1.18 | 1.21 | 1.06 | 1.21 | 1.28 | 1.24 | 1.2
pThr fixed | 1.17 | 1.23 | 1.15 | 1.21 | 1.07 | 1.05 | 0.96 | 1.2 | 1.29 | 1.18
pTyr fixed | 1.25 | 0.974 | 1.18 | 0.991 | 1.22 | 2.13 | 1.28 | 1.25 | 1.18 | 1.18
